Reference: patent US20240117061A1 (WUHAN YZY BIOPHARMA, published 2024)

Key:
[1] = biological target: T1, recombinant human BCMA-his fusion protein (ACRO Biosystem, Cat. No. BCA-H522y) (human, UniProt Q02223 1-54); assay: competitive ELISA, coated huBCMA-his, competitor APRIL-biotin
T1 construct: extracellular domain; Bought protein; also called huBCMA-his; hu BCMA-his; not shown: His tag
T1 sequence (looked up): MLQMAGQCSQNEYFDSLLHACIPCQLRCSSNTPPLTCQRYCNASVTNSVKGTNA

[2] = biological target: T1, recombinant human BCMA-his fusion …; assay: as above; remark: listed apart in the source
Method: The 96-well microplate was treated with 100 μL of 0.5 μg/mL huBCMA-his in PBS and incubated overnight at 4° C. The plate was then washed thrice with PBS washing buffer containing 0.1% of Tween-20 and blocked with 300 μL of PBS containing 1% of BSA for 2 h. 100 μL of each BCMA antibody was added to the plate. […] The plate was incubated at 37° C. for 1 h, and unbound secondary antibody was washed with PBS washing buffer containing 0.1% of Tween-20. The TMB chromogenic solution was added at 100 μL/well. After a 5-min reaction at room temperature, 2 M H₂SO₄ was added at 100 μL/well to terminate the reaction. The microplate was placed on a microplate reader (Molecular Devices, SPECTRA Max plus 384) and the absorbance OD450 value was read at 450 nm wavelength.

[3] = biological target: T1, recombinant human BCMA-his fusion …; assay: competitive ELISA, coated huBCMA-his, competitor 83A10-biotin, antibody at 7 µg/mL
[4] = biological target: T1, recombinant human BCMA-his fusion …; assay: SPR (Biacore T200), anti-His capture on CM5, 1:1 fit
Method: (§1) In this example, the antigen-antibody binding kinetics and affinity were determined by the BIACORE method.
(§2) Procedures: The anti-histidine antibody (GE, His capture Kit, Cat. No. 28995056) was conjugated to the Sereis S Sensor Chip CMS to capture the test articles, thus acquiring the binding kinetic and affinity data of the antigen, as an analyte, to the test articles. The initial concentration for detecting the binding of the antigen and the test articles was 10 nM. […] The Start up flushing process (1×HBS-EP+buffer) was performed at least thrice before loading to equilibrate the system. The association and dissociation tendencies between the antigen and the test articles were detected. When the dissociation was completed, a regeneration reagent was loaded for regeneration before the detection of the next concentration was performed. After the detection was finished, the data were fitted by using a 1:1 Binding fitting mode in data analysis software (Biacore T200 Evaluation Software).

[5] = biological target: T1, recombinant human BCMA-his fusion …; assay: ELISA, coated antigen
Method: (§3) Procedures: huBCMA-his and cynoBCMA-his antigens were prepared into 0.5 μg/mL coating solutions with PBS (pH 7.4). The coating solutions were added to a microplate at 100 μL/well and incubated at 4° C. overnight. The residual coating solution was discarded before 3% BSA was added at 300 μL/well, and the plate was blocked for 3 h at room temperature. The microplate was washed once with PB ST at 300 The stock humanized monoclonal antibody solutions were serially 3-fold diluted to the 11th concentration. The dilutions were added to the microplate at 100 μL/well. After a 1-h incubation at room temperature, the microplate was washed thrice with PBST at 300 The HRP-conjugated 6*His, His-Tag antibody was 25,000-fold diluted with 1% BSA-PBST and added at 100 After another 1-h incubation at room temperature, the microplate was washed thrice with PB ST at 300 μL/well and dried. The TMB chromogenic solution was added at 100 μL. After a 5-min reaction at room temperature, 2 M H2504 was added at 100 μL/well to terminate the reaction. The microplate was placed on a microplate reader (Molecular Devices, SPECTRA Max plus 384) and the absorbance OD450 value was read at 450 nm wavelength.

[6] = biological target: T2, human BCMA on cells (NCI-H929, U266B1, HEK293 huBCMA) (human, UniProt Q02223 1-184); assay: flow cytometry on NCI-H929 cells
T2 construct: whole, on cells; also called cell surface BCMA antigen
T2 sequence (looked up): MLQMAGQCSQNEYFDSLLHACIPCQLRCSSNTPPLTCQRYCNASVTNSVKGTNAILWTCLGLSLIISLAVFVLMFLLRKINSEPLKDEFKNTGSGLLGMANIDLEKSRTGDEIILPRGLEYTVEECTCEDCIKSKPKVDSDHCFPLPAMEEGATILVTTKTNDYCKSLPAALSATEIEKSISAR
Method: (§4) Procedures: Preparation of cell suspensions: The cells were resuspended in PBS, and the cell density was adjusted to 2×10⁵ cells/well. Mouse antibodies were added to a 96-well plate at […] and serially 3-fold diluted from 3000 nM. The plate was incubated for 1 h at 4° C. 150 μL of precooled PBS containing 1% of FBS was added into the 96-well plate after the co-incubation with the primary antibody was finished. The mixtures were centrifuged at 300×g for 5 min and the supernatants were discarded. The above procedures were repeated once. The fluorescent secondary antibody PE […] (Biolegend, 409304) was added at 80 μL/well. The plate was incubated at 4° C. for 30 min. 150 μL of precooled PBS containing 1% of FBS was added into the 96-well plate after the co-incubation with the secondary antibody was finished. The mixtures were uniformly mixed with a pipette. The 96-well plate was centrifuged at 300×g for 5 min in a plate centrifuge and the supernatants were removed. The above procedures were repeated once. The cells were resuspended in 100 μL of PBS containing 1% of FBS and detected on a flow cytometry (BD Accuri™ C6).

[7] = biological target: T1, recombinant human BCMA-his fusion …; assay: competitive ELISA, coated huBCMA-his, competitor 83A10-biotin
[8] = biological target: T2, human BCMA on cells (NCI-H929, U266B1, …); assay: flow cytometry on U266B1 cells
Method: (§5) The affinities of the 3 mouse antibodies for cell surface BCMA antigen were assessed using FACS. Materials: cell lines NCI-H929, U266B1, HEK293 cynoBCMA and HEK293; PBS buffer; FBS (fetal bovine serum; Gibco, 10099141); PE goat anti-mouse IgG Fc (Biolegend, 405307). Procedures: The cells were resuspended in PBS to prepare cell suspensions containing 200,000 cells. Mouse BCMA antibodies were added to a 96-well plate at 50 μL/well and serially 3-fold diluted from 3000 nM. The plate was incubated for 1 h at 4° C. 150 μL of precooled PBS containing 1% of FBS was added into the 96-well plate after the co-incubation with the primary antibody was finished. The mixtures were centrifuged at 300×g for 5 min and the supernatants were discarded. The above procedures were repeated once. The fluorescent secondary antibody PE goat anti-mouse IgG Fc was added at 80 μL/well. The plate was incubated at 4° C. for 30 min. 150 μL of precooled PBS containing 1% of FBS was added into the 96-well plate after the co-incubation with the secondary antibody was finished. The mixtures were uniformly mixed with a pipette. The 96-well plate was centrifuged at 300×g for 5 min in a plate centrifuge and the supernatants were discarded. The above procedures were repeated once. The cells were resuspended in 100 μL of PBS containing 1% of FBS and detected on a flow cytometry (BD Accuri™ C6).

[9] = biological target: T2, human BCMA on cells (NCI-H929, U266B1, …); assay: flow cytometry on NCI-H929 cells; remark: listed apart in the source
Method: as §5

[10] = biological target: T3, recombinant human BCMA-huFc fusion protein (human); assay: indirect ELISA, coated antigen
T3 construct: also called huBCMA-huFc
Method: Procedures: Human, mouse and monkey BCMA antigens were prepared into 0.5 μg/mL coating solutions with PBS buffer. The coating solutions were added to a microplate at 100 μL/well and incubated at 4° C. overnight. The residual coating solution was discarded before 3% BSA was added at 300 μL/well, and the plate was blocked for 3 h at room temperature. The microplate was washed once with PBST (PBS containing 0.1% of TWEEN 20) at 300 μL/well. The three mouse BCMA antibodies were serially 3-fold diluted from 10 μg/mL to the 7th concentration. The dilutions were added to the microplate at 100 μL/well. After a 1-h incubation at room temperature, the microplate was washed thrice with PBST at 300 μL/well. The HRP goat anti-mouse IgG antibody was 25,000-fold diluted with 1% BSA-PBST and added at 100 μL/well. After another 1-h incubation at room temperature, the microplate was washed thrice with PBST at 300 μL/well and dried. The TMB chromogenic solution was added at 100 μL/well. After a 5-min reaction at room temperature, 2 M H₂SO₄ was added at 100 μL/well to terminate the reaction. The microplate was placed on a microplate reader (Molecular Devices, SPECTRA Max plus 384) and the absorbance OD450 value was read at 450 nm wavelength.

[11] = biological target: T4, cynomolgus monkey BCMA on HEK293 cynoBCMA cells (cynomolgus monkey, UniProt A0A2K5UD97 1-183); assay: flow cytometry on HEK293 cynoBCMA cells
T4 construct: whole, on cells
Method: as §4

[12] = biological target: T5, recombinant cynomolgus monkey cynoBCMA-his (ACRO Biosystem, Cat. No. BCA-052H7) (cynomolgus monkey, UniProt A0A2K5UD97 1-53); assay: competitive ELISA, coated cynoBCMA-his, competitor 83A10-biotin
T5 construct: extracellular domain; Bought protein; also called cynomolgus/rhesus macaque BCMA/TNFRSF17 protein; not shown: His tag

[13] = biological target: T5, recombinant cynomolgus monkey …; assay: SPR (Biacore T200), anti-His capture on CM5, 1:1 fit
Method: as §1, §2

[14] = biological target: T5, recombinant cynomolgus monkey …; assay: ELISA, coated antigen
Method: as §3

T5 sequence (A0A2K5UD97 entry or part of it): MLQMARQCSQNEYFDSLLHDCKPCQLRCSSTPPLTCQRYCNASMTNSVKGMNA
T4 sequence (A0A2K5UD97 entry or part of it): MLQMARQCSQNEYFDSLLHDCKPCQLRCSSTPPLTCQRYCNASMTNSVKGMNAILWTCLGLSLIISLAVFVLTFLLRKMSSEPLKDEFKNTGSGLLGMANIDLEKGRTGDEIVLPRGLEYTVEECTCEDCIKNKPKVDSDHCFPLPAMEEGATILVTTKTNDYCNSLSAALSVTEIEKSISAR

B1: soluble human APRIL (ACRO, Cat. No. APL-H5244) (ligand, UniProt O75888 115-250, looked up)
chain: HSVLHLVPINATSKDDSDVTEVMWQPALRRGRGLQAQGYGVRIQDAGVYLLYSQVLFQDVTFTMGQVVSREGQGRQETLFRCIRSMPSHPDRAYNSCYSAGVFHLHQGDILSVIIPRARAKLNLSPHGTFLGFVKL
notes: also called APRIL ligand; APRIL-biotin
IC50 [1]: 3.7 µg/mL | IC50 [2]: 0.0247 µg/mL

B2: humanized antibody hu-mAb2 (VH2+VL2) (antibody, V domains shown)
VH: QVQLVQSGAEVKKPGSSVKVSCKVSGYTFTDHTIHWMKQAPGQGLEWIGYIYPRNGNTKYNEKFKGKATLTADKSTSTAYMELSSLRSEDTAVYFCARYDYDGYFDVWGQGTLVTVSS
VL: DVVMTQTPLSLSVTPGQPASISCRSSQSHVHSDGHTYLHWYLQKPGQSPELLIYKVSNRFSGVPDRFSGSGSGTDFTLKISRVEAEDVGVYFCSQNTHFPWTFGGGTKVEIK
notes: human IgG1/kappa named only as preferred
competition [3]: 30% | IC50 [1]: 2.76 µg/mL | Kd [4]: 1.15 nM | koff [4]: 0.0258 s⁻¹ | kon [4]: 2.24e+07 M⁻¹ s⁻¹ | EC50 [5]: 0.00271 nM | EC50 [6]: 0.83 nM | IC50 [7]: 8.35 µg/mL

B3: mouse monoclonal antibody 202E11H10E3 (antibody, V domains shown)
VH: QVQLQQSDAELVKPGTSVKISCKVSGYTFTDHTIHWMKQRPEQGLEWIGYIYPRNGNTKYNEKFKGKATLTADKSSSTAYMHLNSLTSEDSAVYFCARYDYDGYFDVWGTGTTVTVSS
VL: DVVMTQTPLSLPVSLGDQASISCRSSQSHVHSDGHTYLHWYLQKPGQSPELLIYKVSNRFSGVPDRFSGSGSGTDFTLKISRVEAEDLGVYFCSQNTHFPWTFGGGTKLEIK
notes: detected with anti-mouse IgG; also called Clone 202E11H10E3; BCMA-HC2/BCMA-LC2
EC50 [8]: 1 nM | EC50 [9]: 1.1 nM | EC50 [10]: 0.0764 nM

B4: humanized antibody hu-mAb3 (VH3+VL3) (antibody, V domains shown)
VH: QVQLVQSGAEVKKPGASVKVSCKASGYTITDYNMDWVRQAPGQGLEWIGNINPHNGGSIYNQKFQGRATLTVDKSTSTAYMELSSLRSEDTAVYYCARGDATLVLDYWGQGTTVTVSS
VL: DIQLTQSPSSLSASVGDRATITCRASKSVSTSGLSYMHWYQQKPGKAPKVLIYLASNLESGVPARFSGSGSGTDFTLTISSVQPEDFATYYCQHSRELPPTFGQGTKLELK
notes: as for B2
EC50 [11]: 3.76 nM | IC50 [12]: 1.32 µg/mL | IC50 [1]: 0.918 µg/mL | Kd [13]: 0.256 nM | koff [13]: 0.000773 s⁻¹ | kon [13]: 3.02e+06 M⁻¹ s⁻¹ | Kd [4]: 0.399 nM | koff [4]: 0.00235 s⁻¹ | kon [4]: 5.9e+06 M⁻¹ s⁻¹ | EC50 [14]: 0.0303 nM | EC50 [5]: 0.0226 nM | EC50 [6]: 8.07 nM | IC50 [7]: 1.37 µg/mL

B5: mouse monoclonal antibody 18F6G3H9 (antibody, V domains shown)
VH: EVQLQQSGPELVKPGTSVEMSCKASGYTFTDYNIHWVRQRHGESLEWLGYINPNNGVTNFNQKFKGKATLTVNKSSSTAYMELRSLTSDDSAVYYCSSGLFDGYPFPYWGQGTLVTVSA
VL: DIVLTQSPASLVVSLGQRATISCRASKSVSTSGYNYIHWYQQKPGQPPKLLIFLASNLKSGVPARFSGGGSGTDFTLNIHPVEEDDAATYFCQHNRELPYTFGGGTKVEIK
notes: detected with anti-mouse IgG; also called Clone 18F6G3H9; BCMA-HC1/BCMA-LC1
EC50 [8]: 1.6 nM | EC50 [9]: 3.1 nM | EC50 [10]: 0.0705 nM
